Legend:
[1] = target: T1, recombinant rat periostin (rat, UniProt A0A8I6AHK0 24-838); assay: BLI (Octet Red); Table 6 ties the high end of the range to rat periostin
T1 construct: also called RatPOSTN
Procedure: (§1) NB0828's binding affinity was determined across human, mouse, rat, and cyno species. NB0828 affinities were determined using the octet red system. Briefly, anti-human Fc (AHC) biosensors were used to capture NB0828, followed by association of titrating amounts of either recombinant human, mouse, rat, or cyno periostin (100 nM→0 nM; 1:2 dilutions). Recombinant human, mouse, and rat periostin was purchased commercially from R&D systems, whereas cyno periostin was made internally.

[2] = target: T2, recombinant mouse periostin (mouse, UniProt Q62009-2 24-811, limits assumed); assay: binding ELISA, periostin coated
T2 construct: also called MoPOSTN
T2 sequence (looked up): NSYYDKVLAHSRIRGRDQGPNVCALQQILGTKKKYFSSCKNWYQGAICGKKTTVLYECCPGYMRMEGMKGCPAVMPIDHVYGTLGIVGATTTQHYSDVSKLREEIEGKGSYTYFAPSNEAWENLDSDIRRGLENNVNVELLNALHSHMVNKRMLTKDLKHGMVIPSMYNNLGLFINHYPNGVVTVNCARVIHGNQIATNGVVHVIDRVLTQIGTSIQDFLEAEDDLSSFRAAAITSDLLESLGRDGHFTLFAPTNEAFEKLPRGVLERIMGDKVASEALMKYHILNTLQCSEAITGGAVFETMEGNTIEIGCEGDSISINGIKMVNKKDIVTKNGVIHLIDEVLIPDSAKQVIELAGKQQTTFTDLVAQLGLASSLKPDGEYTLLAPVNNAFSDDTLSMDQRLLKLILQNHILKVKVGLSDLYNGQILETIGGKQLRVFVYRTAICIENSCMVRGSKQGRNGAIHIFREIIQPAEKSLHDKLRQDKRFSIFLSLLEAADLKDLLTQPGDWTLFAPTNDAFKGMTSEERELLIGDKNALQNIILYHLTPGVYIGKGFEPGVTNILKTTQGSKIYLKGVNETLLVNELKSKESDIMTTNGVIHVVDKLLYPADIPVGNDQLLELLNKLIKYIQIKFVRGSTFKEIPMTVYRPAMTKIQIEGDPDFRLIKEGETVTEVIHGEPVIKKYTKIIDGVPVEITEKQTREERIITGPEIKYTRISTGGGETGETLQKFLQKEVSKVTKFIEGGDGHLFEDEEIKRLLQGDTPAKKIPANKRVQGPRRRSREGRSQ

NB1243 (L287A) = target: T3, NB1243 (L287A) (human, UniProt Q15063 22-631, limits assumed); assay: ELISA on alanine variants of POSTN EMI-FAS4, second screen
T3 construct: also called POSTN EMI-FAS4 L287A
T3 sequence: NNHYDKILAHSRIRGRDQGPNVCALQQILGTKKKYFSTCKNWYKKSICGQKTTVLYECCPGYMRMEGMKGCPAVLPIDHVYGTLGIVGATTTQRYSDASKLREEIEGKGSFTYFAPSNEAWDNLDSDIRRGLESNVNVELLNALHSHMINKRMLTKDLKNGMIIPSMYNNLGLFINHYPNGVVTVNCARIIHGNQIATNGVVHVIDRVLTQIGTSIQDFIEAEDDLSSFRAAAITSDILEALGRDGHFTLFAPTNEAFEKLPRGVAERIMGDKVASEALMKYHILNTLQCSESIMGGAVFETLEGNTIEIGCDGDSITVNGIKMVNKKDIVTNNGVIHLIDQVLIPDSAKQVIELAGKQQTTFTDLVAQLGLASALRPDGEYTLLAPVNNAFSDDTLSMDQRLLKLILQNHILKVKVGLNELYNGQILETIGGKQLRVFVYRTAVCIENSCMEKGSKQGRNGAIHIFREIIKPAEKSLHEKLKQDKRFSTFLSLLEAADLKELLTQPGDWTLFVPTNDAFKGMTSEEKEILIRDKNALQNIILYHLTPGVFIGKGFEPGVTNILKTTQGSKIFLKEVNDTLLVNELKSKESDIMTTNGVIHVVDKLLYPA

NB1202 (N276A) = target: T4, NB1202 (N276A) (human, UniProt Q15063 22-631, limits assumed); assay: as above
T4 construct: also called POSTN EMI-FAS4 N276A
T4 sequence: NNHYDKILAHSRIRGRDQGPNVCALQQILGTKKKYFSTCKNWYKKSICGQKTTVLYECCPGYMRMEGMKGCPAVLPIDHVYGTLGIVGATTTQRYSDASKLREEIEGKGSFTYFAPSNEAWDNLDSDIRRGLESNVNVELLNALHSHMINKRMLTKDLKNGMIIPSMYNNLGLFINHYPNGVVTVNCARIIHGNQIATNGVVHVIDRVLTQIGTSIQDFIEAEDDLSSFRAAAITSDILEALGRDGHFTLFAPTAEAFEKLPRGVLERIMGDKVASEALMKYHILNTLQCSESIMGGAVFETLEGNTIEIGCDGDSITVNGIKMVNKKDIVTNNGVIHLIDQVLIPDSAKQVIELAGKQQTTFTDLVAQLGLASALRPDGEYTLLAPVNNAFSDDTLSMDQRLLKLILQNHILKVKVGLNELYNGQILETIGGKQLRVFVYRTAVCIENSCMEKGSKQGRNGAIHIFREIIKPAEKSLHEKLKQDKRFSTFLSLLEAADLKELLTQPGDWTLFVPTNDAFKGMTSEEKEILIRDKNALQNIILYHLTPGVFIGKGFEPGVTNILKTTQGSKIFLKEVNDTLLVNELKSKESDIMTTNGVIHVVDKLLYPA

[3] = target: T2, recombinant mouse periostin; assay: BLI (Octet Red); Table 6 ties the low end of the range to mouse periostin
Procedure: as §1

Kd [1]: 0.5 nM
EC50 [2]: 0.15 nM
loss from the max signal (NB1243 (L287A)): > 50%
loss from the max signal (NB1202 (N276A)): > 50%
Kd [3]: 0.1 nM
B1: NB0828 (antibody, V domains shown)
VH: QVQLVQSGAEVKKPGASVKVSCKASGYTFTSYGISWVRQAPGQGLEWMGWISAYNGNTNYAQKLQGRVTMTTDTSTSTAYMELRSLRSDDTAVYYCARDMLVVPFDYWGQGTLVTVSS
VL: QSVLTQSSSASGTPGQTVTVSCSGSSSDIGSNRVNWYQQLPGTAPKLLIYSNDQRPSGVPDRFSGSKSGTSASLAISGLQSADEADYYCAAWDDSLSTYVFGSGTKVTVL
